In patent US7608262:

Molecular target: recombinant human TNF (human) (UniProt P01375)
Test: binding assays of cA2 and recombinant human TNF (format not described)

Chain of UniProt P01375 (P01375 77-233 limits assumed): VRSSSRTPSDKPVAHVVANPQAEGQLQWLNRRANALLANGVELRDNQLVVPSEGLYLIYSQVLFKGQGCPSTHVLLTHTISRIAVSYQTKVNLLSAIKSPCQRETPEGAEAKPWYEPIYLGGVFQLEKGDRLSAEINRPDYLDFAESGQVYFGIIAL

- Ka: 1.8e+09 M⁻¹
Substance: chimeric A2 (cA2) anti-TNF monoclonal antibody
